From US20220048991A1 (BIOND BIOLOGICS, published 2022)
Positions count from the first letter of the chain named. Names may count otherwise. One block for each molecule: values may come before it.

Tests used:
[1] = molecular target: T1, recombinant ILT2 (human) (human, UniProt Q8NHL6 24-461); assay: binding ELISA, hILT2-Fc; positive control is GHI/75 by paragraph 244
T1 construct: also called recombinant ILT2 peptide; ILT2 protein

[2] = molecular target: T2, PIRB (UniProt P97484 25-642, limits assumed); assay: binding ELISA, column PIRB; negative control
T2 sequence (looked up): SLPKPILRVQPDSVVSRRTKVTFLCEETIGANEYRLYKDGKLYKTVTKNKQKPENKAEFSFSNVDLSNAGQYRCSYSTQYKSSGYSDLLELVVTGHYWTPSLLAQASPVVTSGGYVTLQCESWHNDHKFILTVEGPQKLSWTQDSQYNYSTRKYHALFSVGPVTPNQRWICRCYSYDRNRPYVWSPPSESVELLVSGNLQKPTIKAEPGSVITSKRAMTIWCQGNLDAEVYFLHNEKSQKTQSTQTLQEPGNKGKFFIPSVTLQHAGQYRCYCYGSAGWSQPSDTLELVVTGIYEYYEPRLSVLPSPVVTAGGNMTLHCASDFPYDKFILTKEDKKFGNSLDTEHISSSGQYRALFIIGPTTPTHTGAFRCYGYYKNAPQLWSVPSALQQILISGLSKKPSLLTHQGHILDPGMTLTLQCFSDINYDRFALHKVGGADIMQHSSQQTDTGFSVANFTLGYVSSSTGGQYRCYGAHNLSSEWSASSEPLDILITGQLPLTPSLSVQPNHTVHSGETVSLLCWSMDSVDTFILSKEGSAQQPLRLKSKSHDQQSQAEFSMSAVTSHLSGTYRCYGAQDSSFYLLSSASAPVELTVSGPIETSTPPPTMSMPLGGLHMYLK

[3] = molecular target: T1, recombinant ILT2 (human); assay: binding ELISA, hILT2-Fc; negative control
[4] = molecular target: ILT6 (UniProt Q8N6C8 24-439, limits assumed); assay: binding ELISA, column hILT6-His; negative control
[5] = molecular target: LILRA1 (UniProt O75019 17-461, limits assumed); assay: binding ELISA, column hLILRA1-His; negative control
[6] = molecular target: T3, biotinylated recombinant human ILT2-Fc (human, UniProt Q8NHL6 24-458, limits assumed, conjugated with biotin (sites not given)); assay: flow cytometry blocking assay: ILT2-biotin binding to cells expressing HLA-G [left panel]
T3 construct: Bought (Sino Biologics); the order of the parts is therefore uncertain; also called ILT2-biotin; biotinylated ILT2; not shown: Fc portion of human IgG1
Method: (§1) Flow cytometry blocking assay—Recombinant human ILT2 protein fused with the Fc portion of human IgG1 at the N terminal was conjugated with biotin (Innova bioscience). A total of 5×10⁵ A375/HLA-G1 cells were incubated in a volume of 100 μL in the presence of anti-ILT2 clone #1 or isotype matched control mAb and ILT2-Fc conjugated with biotin (10 μg/mL) for 30 minutes at room temperature. After several washing steps, streptavidin-PE was added at a final concentration of 0.2 μg/mL and incubated for 30 min on ice followed by FACS analysis.
(§2) The ability of the generated anti-ILT2 antibodies to block the interaction between HLA-G and ILT2 was tested using four different assays. First, a blocking flow cytometry assay was performed. HLA-G transfected A375 cells were incubated with biotinylated ILT2 in the presence of the antibodies of the present disclosure and a positive control antibody. The commercially available anti-ILT2 antibody GHI/75 (BioLegend, Cat. No. 333704) was used as the positive control. The binding of ILT2-biotin to the cells was determined using Streptavidin-PE by flow cytometry analysis (FIG. 8A). The percent of blocking was determined by normalizing to a negative control (ILT2 binding in the presence of control IgG). […] The percentage of blocking was calculated at various concentrations of antibody (FIG. 8C).

[7] = molecular target: T4, human ILT2 fused to mouse CD3 zeta chain, on BW cells (human; mouse); assay: flow cytometry on BW cells transfected with human ILT2; fold above background (FAB) [left panel]
T4 construct: domain: trans-membrane and cytoplasmic residues; also called BW-ILT2; BW/ILT2z

[8] = molecular target: T4, human ILT2 fused to mouse CD3 zeta …; assay: cell-based or functional assay
[9] = molecular target: T1, recombinant ILT2 (human); assay: SPR (Biacore T200); KD relative to Control (chimeric 15G8)
Method: (§3) During grafting of the 15G8 CDRs, five heavy chains and four kappa light chains were generated. These chains were designated VH1-5 and Vk1-4. By combining each heavy chain with each light chain twenty different resultant antibodies are possible. All twenty possible antibodies were transiently expressed in HEK EBNA cells, and the supernatants were tested for binding to recombinant ILT2 peptide using a Biacore T200. The chimeric 15G8 antibody was used as control.

[10] = molecular target: T1, recombinant ILT2 (human); assay: SPR (Biacore T200), HEK EBNA supernatants on recombinant ILT2 peptide
Method: as §3

[11] = molecular target: T3, biotinylated recombinant human ILT2-Fc; assay: flow cytometry blocking assay: ILT2-biotin binding to cells expressing HLA-G
Method: as §1, §2

[12] = molecular target: T3, biotinylated recombinant human ILT2-Fc; assay: flow cytometry blocking assay: ILT2-biotin binding to cells expressing HLA-G [right panel]
Method: as §1, §2

[13] = molecular target: T3, biotinylated recombinant human ILT2-Fc; assay: B2M blocking ELISA: plate-bound recombinant human B2M-His, biotinylated ILT2-Fc at 20 µg/ml, titrated antibody, streptavidin-HRP; blocked ligand B2M
Method: To test whether 15G8 can block the interaction between ILT2 and B2M, a B2M blocking ELISA was performed. 96 well nickel plates were coated with recombinant human B2M-His tag (3 μg/ml; Sino Biologics, 11976-H08H) overnight. Biotinylated ILT2-Fc (20 μg/ml; Sino Biologics, 1614-H02H; Innova Biosciences, 370-0010) was added for 2 hours at 37° C., which allowed ILT2 binding to B2M, in the presence or absence of titrated BND-22 or an irrelevant antibody (anti human CD28, Biolegend, 302934) (Ab range of 80-0.1 μg/ml, ×3 fold). ILT2 binding to B2M was detected by HRP conjugated streptavidin (R&D Systems, DY998). The absorbance was measured using an ELISA Reader (Biotek Synergy-H1 plate reader).

T3 sequence (Q8NHL6 24-458 limits assumed): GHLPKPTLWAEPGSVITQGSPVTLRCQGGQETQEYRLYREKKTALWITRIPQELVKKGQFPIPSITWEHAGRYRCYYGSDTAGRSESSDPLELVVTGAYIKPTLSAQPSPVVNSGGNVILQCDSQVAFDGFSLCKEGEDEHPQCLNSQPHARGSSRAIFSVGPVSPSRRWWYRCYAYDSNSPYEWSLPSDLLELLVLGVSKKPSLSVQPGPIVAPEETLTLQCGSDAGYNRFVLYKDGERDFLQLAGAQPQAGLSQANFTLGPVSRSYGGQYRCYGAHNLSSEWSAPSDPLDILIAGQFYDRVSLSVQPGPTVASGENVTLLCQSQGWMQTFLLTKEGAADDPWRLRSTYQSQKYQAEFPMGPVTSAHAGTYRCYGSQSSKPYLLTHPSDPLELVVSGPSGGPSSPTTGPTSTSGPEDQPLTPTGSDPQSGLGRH
T1 sequence (Q8NHL6 24-461 limits assumed): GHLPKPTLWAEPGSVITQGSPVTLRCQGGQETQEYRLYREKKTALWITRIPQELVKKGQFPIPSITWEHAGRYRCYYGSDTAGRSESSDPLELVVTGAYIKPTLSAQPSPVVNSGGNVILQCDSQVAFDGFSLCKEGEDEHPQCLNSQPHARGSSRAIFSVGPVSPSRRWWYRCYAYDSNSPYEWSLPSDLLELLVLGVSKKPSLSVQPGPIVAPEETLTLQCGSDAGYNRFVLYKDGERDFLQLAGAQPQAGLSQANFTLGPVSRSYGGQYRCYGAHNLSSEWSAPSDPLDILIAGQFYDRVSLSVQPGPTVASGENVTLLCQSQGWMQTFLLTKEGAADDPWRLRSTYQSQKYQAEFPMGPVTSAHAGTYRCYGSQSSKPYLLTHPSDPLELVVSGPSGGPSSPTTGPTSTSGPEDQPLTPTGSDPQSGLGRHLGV
T4 sequence (P24161 other isoform, or with tags, fused parts or gaps limits assumed): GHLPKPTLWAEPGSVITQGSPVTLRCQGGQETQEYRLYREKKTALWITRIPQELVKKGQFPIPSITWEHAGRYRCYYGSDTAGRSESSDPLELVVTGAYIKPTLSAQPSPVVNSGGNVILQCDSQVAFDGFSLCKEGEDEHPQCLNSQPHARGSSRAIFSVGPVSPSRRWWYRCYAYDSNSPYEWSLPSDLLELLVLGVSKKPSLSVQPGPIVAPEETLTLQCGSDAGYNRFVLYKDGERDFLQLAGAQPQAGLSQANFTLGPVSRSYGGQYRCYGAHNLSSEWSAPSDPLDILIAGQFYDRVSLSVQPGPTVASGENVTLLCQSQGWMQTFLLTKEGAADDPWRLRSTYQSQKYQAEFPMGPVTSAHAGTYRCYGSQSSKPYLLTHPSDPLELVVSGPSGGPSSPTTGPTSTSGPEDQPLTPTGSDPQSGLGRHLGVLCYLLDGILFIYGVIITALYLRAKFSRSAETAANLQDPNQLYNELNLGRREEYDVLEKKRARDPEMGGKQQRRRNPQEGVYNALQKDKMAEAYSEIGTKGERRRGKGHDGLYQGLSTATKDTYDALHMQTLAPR
ILT6, sequence (Q8N6C8 24-439 limits assumed): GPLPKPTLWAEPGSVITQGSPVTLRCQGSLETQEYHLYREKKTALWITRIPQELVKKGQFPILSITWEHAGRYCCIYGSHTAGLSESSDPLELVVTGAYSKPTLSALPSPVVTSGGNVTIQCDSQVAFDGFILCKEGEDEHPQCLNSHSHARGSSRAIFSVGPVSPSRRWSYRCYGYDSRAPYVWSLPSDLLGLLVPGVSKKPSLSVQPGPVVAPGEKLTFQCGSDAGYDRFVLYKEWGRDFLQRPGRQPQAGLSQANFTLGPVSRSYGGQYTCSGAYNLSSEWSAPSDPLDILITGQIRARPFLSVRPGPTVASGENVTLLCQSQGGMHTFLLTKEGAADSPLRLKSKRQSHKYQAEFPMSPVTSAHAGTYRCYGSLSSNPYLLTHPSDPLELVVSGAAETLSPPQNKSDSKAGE
LILRA1, sequence (O75019 17-461 limits assumed): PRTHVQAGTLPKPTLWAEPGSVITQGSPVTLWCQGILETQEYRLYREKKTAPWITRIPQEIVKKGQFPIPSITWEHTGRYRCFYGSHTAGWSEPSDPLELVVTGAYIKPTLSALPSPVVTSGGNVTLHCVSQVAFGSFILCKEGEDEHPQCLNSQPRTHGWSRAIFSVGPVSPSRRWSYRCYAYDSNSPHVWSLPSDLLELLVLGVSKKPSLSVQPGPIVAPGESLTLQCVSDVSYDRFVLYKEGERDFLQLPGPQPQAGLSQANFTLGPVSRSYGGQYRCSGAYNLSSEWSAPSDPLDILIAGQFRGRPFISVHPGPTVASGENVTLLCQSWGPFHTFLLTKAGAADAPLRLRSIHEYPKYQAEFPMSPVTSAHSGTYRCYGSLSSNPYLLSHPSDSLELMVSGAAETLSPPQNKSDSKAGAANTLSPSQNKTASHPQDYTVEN

- ELISA (OD) [1]: 2.45 OD
Molecule: GHI/75 (commercial mouse anti-human ILT2 antibody, BioLegend Cat. No. 333704)

- ELISA (OD) [2]: 0.0575 OD
- ELISA (OD) [3]: 0.05 OD
- ELISA (OD) [4]: 0.071 OD
- ELISA (OD) [5]: 0.13 OD
Molecule: Negative

- IC50 (read off the curve) [6]: ~0.6 µg/mL
- EC50 (read off the curve) [7]: ~0.6 µg/mL
B1: chimeric 19E3 (antibody, V domains shown)
VH: QVQLQQSGAELARPGASVKLSCKASGYTFTSYGISWVKQRTGQGLEWVGEIYPGSGNSYYNEKFKGKATLTADKSSSTAYMELRSLTSEDSAVYFCARSNDGYPDYWGQGTTLTVSS
VL: DIQMTQSSSYLSVSLGGRVTITCKASDHINNWLAWYQQKPGNAPRLLISGATSLETGVPSRFSGSGSGKDYTLSITSLQTEDVATYYCQQYWSTPWTFGGGTKLEIK
notes: Chimera of murine 19E3; also called chimeric murine 19E3

- IC50 (read off the curve) of Blocking (%) in the BW-ILT2 / A375-HLA-G mouse IL-2 reporter assay [8]: ~0.02 µg/mL
- Relative KD [9]: 0.55
- Kd [10]: 6.94 nM
- koff [10]: 0.00905 s⁻¹
- kon [10]: 1.3e+06 M⁻¹ s⁻¹
- IC50 (read off the curve) [11]: ~0.3 µg/mL
- IC50 (read off the curve) [12]: ~0.2 µg/mL
- IC50 (read off the curve) [13]: ~8 µg/mL
B2: 15G8-13 (humanized 15G8, VH1/Vk3, alanine variant A108) (antibody, human IgG4 S228P, kappa, V domains shown)
VH: DVQLQGSGPGLVKPSETLSLTCSVTGYSITSGYYWNWIRQFPGKKLEWMGYISYDGSNNYNPSLKNRITISRDTSKNQFSLKLNSVTAADTATYYCAHGYSYYYAMDAWGQGTSVTVSS
VL: DIQMTQSPSSLSASVGDRVTITCRTSQDISNYLNWYQQKPGKAVKLLISYTSRLHSGVPSRFSGSGSGTDYTLTISSLQPEDFATYYCQQGNTLPTFGQGTKLEIKR
notes: Humanized IgG4 (S228P, L235E), kappa; also called 15G8 humanized antibody; BND-22

- Relative KD [9]: 1
- Kd [10]: 12.6 nM
- koff [10]: 0.0102 s⁻¹
- kon [10]: 808000 M⁻¹ s⁻¹
- IC50 (read off the curve) [12]: ~0.2 µg/mL
B3: chimeric 15G8 antibody (antibody, V domains shown)
VH: B2 VH with E16Q, T17S, K44N, T69S, S71T, S80F, A88S, A89E, A108C
VL: DIQMTQTTSSLSASLGDRVTISCRTSQDISNYLNWYQQKPDGTVKLLISYTSRLHSGVPSRFSGSGSGTDYSLTISNLEQEDIATYFCQQGNTLPTFGSGTKLEIK
notes: Chimeric form of murine 15G8
